The record followed here is PMC8219891.

In this data set the target is T1, SPRTN-EQ (catalytically inactive) (UniProt Q9H040 1-489, E112Q).
T1 sequence: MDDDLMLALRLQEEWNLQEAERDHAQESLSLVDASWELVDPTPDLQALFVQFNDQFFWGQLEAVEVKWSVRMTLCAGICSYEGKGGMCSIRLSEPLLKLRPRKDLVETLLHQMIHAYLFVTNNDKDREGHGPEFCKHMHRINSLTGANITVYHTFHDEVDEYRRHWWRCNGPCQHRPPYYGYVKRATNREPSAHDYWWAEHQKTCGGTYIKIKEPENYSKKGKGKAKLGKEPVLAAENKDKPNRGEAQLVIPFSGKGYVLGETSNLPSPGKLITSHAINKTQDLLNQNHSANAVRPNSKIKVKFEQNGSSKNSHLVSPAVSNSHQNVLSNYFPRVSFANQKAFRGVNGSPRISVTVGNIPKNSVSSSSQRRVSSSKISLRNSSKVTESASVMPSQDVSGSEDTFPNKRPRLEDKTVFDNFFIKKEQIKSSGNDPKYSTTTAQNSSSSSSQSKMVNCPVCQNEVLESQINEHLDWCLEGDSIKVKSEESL
Kind of data set: EMSA. (Mobility shift assays separate free from complexed probe on a gel.)

B1: Junction-DPC (substrate e) (mixed)
DNA 1: CCCAAAAAAAAAAATAAAAAAAAAAAACCC
DNA 2: GGGTTTTTTTTTTTT
modifications: dT15 of strand 1 covalently conjugated to protein G; strand 1 3'-phosphate
B1: the binding result is “binds”.

B2: dsDPC (substrate f) (dsDNA)
DNA 1: B1 DNA 1
DNA 2: GGGTTTTTTTTTTTTATTTTTTTTTTTGGG
modifications: dT15 of strand 1 covalently conjugated to protein G; strand 1 3'-phosphate
Consider B2, for which the binding result was “binds”.
